This experiment has as its target RNA ligase from Palaeococcus pacificus (PpaRnl), wild-type (Palaeococcus pacificus). In words: SEC. For orientation: Size exclusion chromatography separates by hydrodynamic size, large species first.

In general, stoichiometry N refers to the number of molecules, sites or subunits per partner or assembly.

For “RNA ligase from Palaeococcus pacificus (PpaRnl), wild-type (enzyme)”, the stoichiometry N worked out at 2.

(Values after PMC11040149.)
